In patent publication US20040018971A1:

Columns and labels:
[1] = molecular target: HLA-A*2401 (human); experiment: inhibition of 125I probe peptide binding to purified HLA; IC50 standard/IC50 test
[2] = molecular target: HLA-DR3 (DRB1*0301), purified HLA class II molecule (human); experiment: competition with 125I-labelled probe peptide, purified HLA-DR
[3] = molecular target: HLA-A*2401 (purified HLA class I molecule) (human); experiment: competition with 125I-labelled standard peptide for purified HLA, gel filtration; settings: scale: ratio
[4] = molecular target: HLA-A*2401 (human); experiment: as above
[5] = molecular target: HLA-A*2401 (purified HLA class I molecule) (human); experiment: competition with 125I-labelled probe peptide for purified HLA, gel filtration; settings: scale: ratio

Row | Substance | relative binding ratio [1] | relative binding ratio (ratio (IC50 standard / IC50 test)) [2] | also measured
1 | HER2/neu 705-714 (from UniProt P04626 705-714) (peptide) | 0.0002 | – | –
2 | HER2/neu DR supermotif exemplary 15-mer … (position 783) (peptide) | – | 0.0062 | –
3 | HER2/neu peptide, position 172, 10 amino acids | – | – | relative binding ratio [3]: 0.0022
4 | HER2/neu 172-181 (from UniProt P04626 172-181) (peptide) | 0.0022 | – | –
5 | HER2/neu DR supermotif exemplary 15-mer … (position 666) (peptide) | – | 0.0021 | –
6 | HER2/neu DR supermotif exemplary 15-mer … (position 8) (peptide) | – | 0.001 | –
7 | HER2/neu peptide, position 780, 11 amino acids | – | – | relative binding ratio (IC50 of standard peptide / IC50 of test peptide) (ratio to standard peptide) [4]: 0.032
8 | HER2/neu 780-790 (peptide) | 0.032 | – | –
9 | HER2/neu peptide, position 952, 10 amino acids | – | – | relative binding ratio [5]: 0.0019
10 | HER2/neu DR supermotif exemplary 15-mer … (position 912) (peptide) | – | 0.001 | –
11 | HER2/neu 705-715 (from UniProt P04626 705-715) (peptide) | -0.0003 | – | –
